# Reference: patent US8216581 (University of Pennsylvania, dated 2012)
# Columns and labels:
# [1] = target: T1, GPIa/IIa on a stable K562 cell line (UniProt P17301 30-1181; P05556 21-798, limits assumed); test: flow cytometry on K562 cells expressing GPIa/IIa
# T1 construct: whole, on cells; also called K562 cell line expressing GPIa/IIa
# [2] = target: T2, GPIIb/IIIa on intact human platelets (human, UniProt P08514 32-1039; P05106 27-788); test: immunoprecipitation from biotinylated platelets; agrees with ELISA and Glanzmann platelet flow cytometry;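 further: precipitated biotin-labelled platelet membrane proteins visualized with biotinylated horseradish peroxidase-avidin complexes, scored for polypeptides behaving like GPIIb/IIIa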
# T2 construct: whole, on cells; also called platelet GPIIb/IIIa; αIIbβ3
# Description: Precipitated, biotinylated platelet membrane proteins were detected with biotinylated horseradish peroxidase-avidin complexes (ABC Staining Kit, Pierce).
binding result [1],binding result [2],Binder
no binding,no binding,"H39L43 (Fab, V domains shown, Soluble Fab) VH: QVQLVESGGGVVQPGRSLRLSCAASGFTFSNYAMHWVRQAPGKGLEWVAVISYDGSNKYYADSVKGRFTISRDNSKNTLYLQMNSLRPEDTAVYYCARGGVAAFDYWGQGTLVTV VL: not shown"
no binding,no binding,"H39L37 (Fab, V domains shown, Soluble Fab) VH: QVQLVESGGGVVQPGRSLRLSCAASGFTFSNYAMHWVRQAPGKGLEWVAVISYDGSNKYYADSVKGRFTISRDNSKNTLYLQMNSLRPEDTAVYYCARGGVAAFDYWGQGTLVTV VL: not shown"
no binding,no binding,"H48L24 (Fab, V domains shown, Soluble Fab, clone A) VH: QVQLVESGGGVVQPGRSLRLSCAASGFTISNYHIHWVRQAPGKGLEWVAFISYDGSNKYYADSVKGRFTISRDNSKNTLFLQMNSLTTEDTAVYYCAIVGPFDYRGQGTLVTVSS VL: DIQLTQSPTFLSASVGDRVTITCRASQGISRYLAWYQQKPGKAPKLLIYAASTLQSGVPSRFSGSGSGTDFTLTFSSLQPEDFATYYCQQLNSYPFTFGGGTTVEIK"
no binding,no binding,"H46L16 (Fab, V domains shown, Soluble Fab, ITP patient A, clone A) VH: QVQLVESGGGVVQPGRSLRLSCAASGFTFSNFNMHWVRQAPGKGLEWVALISYDGSNKNYADSVKGRFTISRDNSKNTLFLQMNSLRAEDTAVYYCMVVGAFDYWGQGTLVTVSS VL: DIQMTQSPSSLSASVGDRVTITCRASQGISSYLAWYQQKPGKVPKLLIYAASTLQSGVPSRFSGSGSGTDFTLTISSLQPEDVATYYCQKYNSAPLTFGGGTKVEIK"
no binding,no binding,"H83L34 (Fab, V domains shown, Soluble Fab) VH: QVQLQESGPGLVKPSETLSLTCTVSGGSISSYYWSWIRQPPGKGLEYIGYIYYSGSTDYNPSLKSRVTISVDTSENQFSLKLSSVTAADTAVYYCARSPPVIRPAMDVWGQGTTVTVSS VL: not shown"
no binding,no binding,"H40L36 (Fab, V domains shown, Soluble Fab) VH: QVQLVESGGGVVQPGRSLRLSCAASTFTFSNYAMHWVRQAPGKGLEWVAVISYDGSNKYYADSVKGRFTISRDNSKNTLYLQMNSLRPEDTAVYYCARGGVAAFDYWGQGTLVTVSS VL: not shown"
no binding,no binding,"H38L39 (Fab, V domains shown, Soluble Fab) VH: QVQLVESGGGVVQPGRSLRLSCAASGFTFSNYAMHWVRQAPGKGLEWVAVISYDGSNKYYADSVKGRFTISRDNSKNTLYLQMNSLRPEDTAVYYCARGGVGAFDYWGQGTLVTVSS VL: DIVMTQSPPSLPVTPGEPASISCRSSQSLLHTNGYNYLDWYLQKPGQSPQLLIYLGSNRASGVPDRFSGSGSGTDFTLTISRVEAEDVGVFYCMQALEPPYTFGQGTKLEIK"
no binding,no binding,"H37L44 (Fab, V domains shown, Soluble Fab) VH: QVQLVESGGGVVQPGRSLRLSCAASGFTFSNYAMHWVRQAPGKGLEWVAVISYDGSNKYYADSVKGRFTISRDNSKNTLYLQMNSLRPEDTAVYYCARGGVAAFDYWGQGTLVTVSS VL: DIVMTQSPVSLAVTPGEPASISCRSSQSLLHSNGYNYLDWYLQKPGQSPQLLIYLGSTRASGVPDRFSGSGSGTDFTLKINRVEAEDVGVYYCMQALQSPFTFGGGTKVEIK"
no binding,no binding,"H40L42 (Fab, V domains shown, Soluble Fab) VH: QVQLVESGGGVVQPGRSLRLSCAASTFTFSNYAMHWVRQAPGKGLEWVAVISYDGSNKYYADSVKGRFTISRDNSKNTLYLQMNSLRPEDTAVYYCARGGVAAFDYWGQGTLVTVSS VL: not shown"
no binding,no binding,"H41L51 (Fab, V domains shown, Soluble Fab) VH: QVQLVESGGGVVQPGRSLRLSCAASGSTFSYYAMHWVRQAPGKGLEWVAVISYDGSNKYYADSVKGRFTISRDNSKNTLYLQMNSLRPEDTAVYYCARGGVAAFDYWGQGTLVTVSS VL: not shown"
no binding,no binding,"H40L53 (Fab, V domains shown, Soluble Fab) VH: QVQLVESGGGVVQPGRSLRLSCAASTFTFSNYAMHWVRQAPGKGLEWVAVISYDGSNKYYADSVKGRFTISRDNSKNTLYLQMNSLRPEDTAVYYCARGGVAAFDYWGQGTLVTVSS VL: not shown"
no binding,no binding,"H42L38 (Fab, V domains shown, Soluble Fab) VH: QVQLVESGGAMVQPGRSLRLSCAASGFPFSNYAMHWVRQAPGKGLEWVAVISYDGSNKYYADSVKGRFTISRDNSKNTLYLQMNSLRPEDTAVYYCARGGVAAFDYWGQGTLVTVSS VL: not shown"
no binding,no binding,"H37L41 (Fab, V domains shown, Soluble Fab) VH: QVQLVESGGGVVQPGRSLRLSCAASGFTFSNYAMHWVRQAPGKGLEWVAVISYDGSNKYYADSVKGRFTISRDNSKNTLYLQMNSLRPEDTAVYYCARGGVAAFDYWGQGTLVTVSS VL: not shown"
no binding,no binding,"H40L52 (Fab, V domains shown, Soluble Fab) VH: QVQLVESGGGVVQPGRSLRLSCAASTFTFSNYAMHWVRQAPGKGLEWVAVISYDGSNKYYADSVKGRFTISRDNSKNTLYLQMNSLRPEDTAVYYCARGGVAAFDYWGQGTLVTVSS VL: not shown"
no binding,no binding,"H37L47 (Fab, V domains shown, Soluble Fab) VH: QVQLVESGGGVVQPGRSLRLSCAASGFTFSNYAMHWVRQAPGKGLEWVAVISYDGSNKYYADSVKGRFTISRDNSKNTLYLQMNSLRPEDTAVYYCARGGVAAFDYWGQGTLVTVSS VL: not shown"
no binding,no binding,"H37L45 (Fab, V domains shown, Soluble Fab) VH: QVQLVESGGGVVQPGRSLRLSCAASGFTFSNYAMHWVRQAPGKGLEWVAVISYDGSNKYYADSVKGRFTISRDNSKNTLYLQMNSLRPEDTAVYYCARGGVAAFDYWGQGTLVTVSS VL: DIVMTQSPVSLAVTPGEPASISCRSSQSLLHSNGYNYLDWYLQKPGQSPQLLIYLGSTRASGVPDRFSGSGSGTDFTLKINRVEAEDVGVYYCMQALQSPFTFGGGTKVQIK"
no binding,no binding,"H36L35 (Fab, V domains shown, Soluble Fab) VH: QVQLVESGGGVVQPGRSLRLSCAASGFTFSSYAMHWVRQAPGKGLEWVAVISYDGSNKYYADSVKGRFTISRDNSKNTLYLQMNSLRPEDTAVYYCARGGVAAFDYWGQGTLVTVSS VL: not shown"
no binding,no binding,"H38L54 (Fab, V domains shown, Soluble Fab) VH: QVQLVESGGGVVQPGRSLRLSCAASGFTFSNYAMHWVRQAPGKGLEWVAVISYDGSNKYYADSVKGRFTISRDNSKNTLYLQMNSLRPEDTAVYYCARGGVGAFDYWGQGTLVTVSS VL: not shown"
no binding,no binding,"H37L48 (Fab, V domains shown, Soluble Fab) VH: QVQLVESGGGVVQPGRSLRLSCAASGFTFSNYAMHWVRQAPGKGLEWVAVISYDGSNKYYADSVKGRFTISRDNSKNTLYLQMNSLRPEDTAVYYCARGGVAAFDYWGQGTLVTVSS VL: not shown"
